Test results reported in article PMC7611158 (Molecular cancer therapeutics, 2019).
Values belong to the binder of their own block, whether it stands above or below them.

Legend:
hJAG1 DSL-EGF1-3 protein = hJAG1 DSL-EGF1-3 protein (Homo sapiens, UniProt P78504); assay: SPR
[1] = molecular target: murine Jagged1 (mJag1), on transfected B16F10 cells (mouse, UniProt Q9QXX0); assay: flow cytometry on cells
[2] = molecular target: human JAGGED2 (hJAG2), on transfected HEK293 cells (Homo sapiens, UniProt Q9Y219); assay: flow cytometry on cells
Chain of human JAGGED2 (hJAG2), on transfected HEK293 cells (Q9Y219 24-1238): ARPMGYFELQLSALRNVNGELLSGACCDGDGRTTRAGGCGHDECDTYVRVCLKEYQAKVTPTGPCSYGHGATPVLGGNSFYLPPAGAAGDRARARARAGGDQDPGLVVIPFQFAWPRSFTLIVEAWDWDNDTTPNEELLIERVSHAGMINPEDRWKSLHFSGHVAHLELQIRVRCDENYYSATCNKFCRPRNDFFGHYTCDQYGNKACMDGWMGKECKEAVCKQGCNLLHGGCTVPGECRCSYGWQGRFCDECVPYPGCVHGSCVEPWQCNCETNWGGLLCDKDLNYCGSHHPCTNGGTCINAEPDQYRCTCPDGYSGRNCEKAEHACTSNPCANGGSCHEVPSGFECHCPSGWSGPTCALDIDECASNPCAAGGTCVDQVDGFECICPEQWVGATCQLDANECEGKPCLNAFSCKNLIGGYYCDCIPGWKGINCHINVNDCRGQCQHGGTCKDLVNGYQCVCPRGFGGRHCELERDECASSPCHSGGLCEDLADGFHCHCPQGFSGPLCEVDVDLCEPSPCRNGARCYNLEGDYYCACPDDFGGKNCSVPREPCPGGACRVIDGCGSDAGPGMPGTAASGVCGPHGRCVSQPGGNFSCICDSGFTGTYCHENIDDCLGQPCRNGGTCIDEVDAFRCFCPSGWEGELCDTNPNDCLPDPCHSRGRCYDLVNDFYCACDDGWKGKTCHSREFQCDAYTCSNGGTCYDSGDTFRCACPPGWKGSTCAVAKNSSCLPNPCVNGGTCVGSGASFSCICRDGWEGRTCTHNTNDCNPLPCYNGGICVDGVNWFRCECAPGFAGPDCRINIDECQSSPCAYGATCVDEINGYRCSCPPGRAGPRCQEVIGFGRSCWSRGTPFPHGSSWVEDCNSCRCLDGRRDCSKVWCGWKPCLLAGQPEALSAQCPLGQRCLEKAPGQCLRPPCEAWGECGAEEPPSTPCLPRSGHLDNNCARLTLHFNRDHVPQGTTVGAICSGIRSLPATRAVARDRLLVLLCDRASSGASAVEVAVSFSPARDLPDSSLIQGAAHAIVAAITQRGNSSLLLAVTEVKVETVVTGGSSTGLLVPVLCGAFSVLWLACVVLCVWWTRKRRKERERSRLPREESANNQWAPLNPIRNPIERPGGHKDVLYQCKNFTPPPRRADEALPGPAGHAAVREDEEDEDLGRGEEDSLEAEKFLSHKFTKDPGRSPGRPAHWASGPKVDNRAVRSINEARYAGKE

[3] = molecular target: human DLL4 (hDLL4), on transfected B16F10 cells (Homo sapiens, UniProt Q9NR61); assay: flow cytometry on cells
Chain of human DLL4 (hDLL4), on transfected B16F10 cells (Q9NR61 27-685, one chain of several): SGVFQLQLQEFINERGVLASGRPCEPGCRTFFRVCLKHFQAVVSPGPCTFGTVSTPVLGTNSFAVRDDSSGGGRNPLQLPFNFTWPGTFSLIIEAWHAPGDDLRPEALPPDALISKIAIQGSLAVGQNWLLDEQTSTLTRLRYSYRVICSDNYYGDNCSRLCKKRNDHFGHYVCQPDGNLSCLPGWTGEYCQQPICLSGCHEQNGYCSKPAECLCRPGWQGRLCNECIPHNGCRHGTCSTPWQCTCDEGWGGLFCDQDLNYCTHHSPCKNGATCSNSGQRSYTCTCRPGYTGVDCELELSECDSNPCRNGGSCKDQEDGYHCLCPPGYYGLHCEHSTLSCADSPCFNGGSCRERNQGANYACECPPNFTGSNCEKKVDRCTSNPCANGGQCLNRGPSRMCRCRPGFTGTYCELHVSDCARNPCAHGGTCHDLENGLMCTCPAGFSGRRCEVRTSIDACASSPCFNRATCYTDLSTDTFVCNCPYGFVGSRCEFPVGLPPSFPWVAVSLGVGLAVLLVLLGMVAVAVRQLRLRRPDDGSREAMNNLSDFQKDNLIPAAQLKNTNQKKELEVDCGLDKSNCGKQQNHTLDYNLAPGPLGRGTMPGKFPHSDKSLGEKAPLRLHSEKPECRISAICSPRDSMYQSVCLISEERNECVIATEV

[4] = molecular target: JAG1 (target of the affinity printed for hJ1-65Dv9) (UniProt P78504)
Chain of JAG1 (target of the affinity printed for hJ1-65Dv9) (P78504 34-1218): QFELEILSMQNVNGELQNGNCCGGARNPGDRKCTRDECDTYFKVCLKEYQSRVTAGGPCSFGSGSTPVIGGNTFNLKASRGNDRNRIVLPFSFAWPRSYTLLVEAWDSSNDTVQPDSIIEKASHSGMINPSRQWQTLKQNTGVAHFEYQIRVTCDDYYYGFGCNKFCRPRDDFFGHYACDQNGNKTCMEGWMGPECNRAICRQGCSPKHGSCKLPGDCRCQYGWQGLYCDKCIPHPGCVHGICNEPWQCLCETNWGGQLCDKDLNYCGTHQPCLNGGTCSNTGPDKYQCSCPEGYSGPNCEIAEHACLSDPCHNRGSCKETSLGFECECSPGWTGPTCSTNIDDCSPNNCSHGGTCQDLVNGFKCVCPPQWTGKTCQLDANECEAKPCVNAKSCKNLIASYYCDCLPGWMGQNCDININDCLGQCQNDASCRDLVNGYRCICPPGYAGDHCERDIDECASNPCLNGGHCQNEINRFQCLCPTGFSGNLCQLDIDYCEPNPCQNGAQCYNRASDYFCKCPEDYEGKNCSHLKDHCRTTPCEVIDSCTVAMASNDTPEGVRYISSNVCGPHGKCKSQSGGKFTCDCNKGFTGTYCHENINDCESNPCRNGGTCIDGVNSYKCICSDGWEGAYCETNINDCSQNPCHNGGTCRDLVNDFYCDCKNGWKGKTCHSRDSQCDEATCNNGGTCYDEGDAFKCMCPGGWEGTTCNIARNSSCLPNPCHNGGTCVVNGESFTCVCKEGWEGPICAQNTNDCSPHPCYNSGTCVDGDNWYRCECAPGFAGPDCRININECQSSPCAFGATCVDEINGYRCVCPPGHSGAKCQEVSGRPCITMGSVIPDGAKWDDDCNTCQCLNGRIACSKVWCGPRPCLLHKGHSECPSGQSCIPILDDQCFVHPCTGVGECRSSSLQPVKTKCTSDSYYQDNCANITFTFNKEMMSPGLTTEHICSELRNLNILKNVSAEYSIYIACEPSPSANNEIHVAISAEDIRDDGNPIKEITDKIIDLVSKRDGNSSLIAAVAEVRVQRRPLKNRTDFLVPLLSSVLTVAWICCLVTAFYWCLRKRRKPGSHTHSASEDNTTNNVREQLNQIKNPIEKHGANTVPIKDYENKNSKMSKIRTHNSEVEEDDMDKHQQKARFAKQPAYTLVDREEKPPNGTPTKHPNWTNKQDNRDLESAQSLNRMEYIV

Chain of murine Jagged1 (mJag1), on transfected B16F10 cells (Q9QXX0 34-1218, one chain of several): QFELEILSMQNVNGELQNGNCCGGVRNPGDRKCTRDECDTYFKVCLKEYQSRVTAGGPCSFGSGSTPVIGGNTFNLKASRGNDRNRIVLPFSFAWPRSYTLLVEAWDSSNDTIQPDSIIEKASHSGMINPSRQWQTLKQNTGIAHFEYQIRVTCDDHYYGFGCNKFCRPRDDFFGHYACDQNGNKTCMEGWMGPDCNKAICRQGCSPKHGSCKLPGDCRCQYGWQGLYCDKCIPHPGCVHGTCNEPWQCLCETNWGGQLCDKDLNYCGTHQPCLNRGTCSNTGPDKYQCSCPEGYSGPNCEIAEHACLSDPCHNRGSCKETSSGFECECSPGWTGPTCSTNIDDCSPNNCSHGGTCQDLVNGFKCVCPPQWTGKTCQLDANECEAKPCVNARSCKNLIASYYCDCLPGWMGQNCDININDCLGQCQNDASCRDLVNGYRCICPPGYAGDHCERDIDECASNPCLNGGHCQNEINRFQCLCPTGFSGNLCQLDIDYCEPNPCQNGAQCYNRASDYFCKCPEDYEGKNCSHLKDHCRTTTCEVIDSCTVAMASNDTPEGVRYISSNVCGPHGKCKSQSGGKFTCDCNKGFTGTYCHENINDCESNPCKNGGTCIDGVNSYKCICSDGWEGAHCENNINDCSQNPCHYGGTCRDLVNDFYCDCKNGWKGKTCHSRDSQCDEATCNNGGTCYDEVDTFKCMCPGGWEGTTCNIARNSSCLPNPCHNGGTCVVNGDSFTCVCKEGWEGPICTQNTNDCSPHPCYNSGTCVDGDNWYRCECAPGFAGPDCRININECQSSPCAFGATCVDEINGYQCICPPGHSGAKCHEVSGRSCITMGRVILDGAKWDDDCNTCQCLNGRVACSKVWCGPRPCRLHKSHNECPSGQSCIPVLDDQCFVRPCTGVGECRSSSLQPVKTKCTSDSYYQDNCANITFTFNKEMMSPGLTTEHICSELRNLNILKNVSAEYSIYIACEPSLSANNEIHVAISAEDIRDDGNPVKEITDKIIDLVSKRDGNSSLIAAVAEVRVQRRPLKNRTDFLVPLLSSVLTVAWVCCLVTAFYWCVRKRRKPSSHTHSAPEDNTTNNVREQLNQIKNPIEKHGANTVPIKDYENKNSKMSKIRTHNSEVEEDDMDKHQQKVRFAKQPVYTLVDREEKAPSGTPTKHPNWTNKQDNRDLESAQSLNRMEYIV
Chain of hJAG1 DSL-EGF1-3 protein (P78504 185-335): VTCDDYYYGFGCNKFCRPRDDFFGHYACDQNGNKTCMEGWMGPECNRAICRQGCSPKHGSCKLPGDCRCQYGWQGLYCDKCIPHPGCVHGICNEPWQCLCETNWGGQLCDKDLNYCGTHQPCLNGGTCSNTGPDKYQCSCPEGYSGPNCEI

Kd (hJAG1 DSL-EGF1-3 protein): 9.7 nM
binding result [1]: no binding
binding result [2]: no binding
binding result [3]: no binding
B1: J1-65D (antibody, V domains shown)
VH: QVQLQQPGAELVRPGASVKLSCKALGYTFTDYEMHWVKETPVHGLEWIGAIQPGGGGTAYNQKFKGKATLTADKSSSTAYMELSSLTSEDSAVYYCTRRGYDDYPFAYWGQGTLVTVSS
VL: DIQLTQSPASLSASVGETVTITCRASGNIHNYLAWYQQKQGKSPQLLVYNAKTLADDIPSRFSGSGSGTQYSLKINSLQPEDFGSYYCQHFWSAPWTFGGGTKLEIK

Kd [4]: 0.0139 nM
B2: hJ1-65Dv9 (antibody, V domains shown)
VH: QVQLVQSGAELKKPGSSVKVSCKASGYTFTDYEMHWVRQAPGQGLEWMGAIQPGGGGTAYNQKFKGRVTLTADKSTSTAYMELSSLRSEDTAVYYCTRRGYDDYPFAYWGQGTLVTVSS
VL: DIQMTQSPSSLSASVGDRVTITCRASGNIHNYLAWYQQKPGKAPKLLIYNAKTLADAVPSRFSGSGSGTDYTLTISSLQPEDFATYYCQHFWSAPWTFGQGTKLEIK

Kd (hJAG1 DSL-EGF1-3 protein): 4.9 nM
binding result [1]: no binding
binding result [2]: no binding
binding result [3]: no binding
B3: J1-183D (antibody, V domains shown)
VH: QVQLQQPGTELVRPGVSVKISCKVSGYAFTDYAIHWIMQSHAKSLEWIGIINTYYGDSKYNQKFKDKATMTVDKSSNTAYMELARLTSEDSAIYYCARGYDGFAYWGQGTLVTVSS
VL: DIQLTQSPASLSASVGETVTFTCRTSENIYSYLTWYQQKQGKSPQLLVYNAKILAAGVPSRFSGYGSGTQFSLKINSLQPEDFGTYYCQHHYDIPWTFGGGTKLEIK
